B1: GNB5 (parent)
chain: DINSVRYYPSGDAFASGSDDATCR
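Further: lentivirally expressed fusions sorted by FACS into six bins by GFP to DsRed ratio, PSI derived from sequencing read proportions per bin multiplied by bin number.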

Variants of: B1
Assay: protein stability index of a GFP-peptide fusion (GPS, HEK-293T) (PSI 1-6); higher = more stable
Details: c terminus: a fixed tail appended
For DINSVRYYPSGDAFASGSDDATTR, the protein stability index was 4.55.
Work on DINSVRYYPSGDAFASGSDDATMR yielded a protein stability index of 3.62.
In the case of DINSVRYYPSGDAFASGSDDATNR, the protein stability index is reported as 3.95.
Variant DINSVRYYPSGDAFASGSDDATYR has a protein stability index of 3.9.
Work on DINSVRYYPSGDAFASGSDDATDR yielded a protein stability index of 4.48.
Variant DINSVRYYPSGDAFASGSDDATQR has a protein stability index of 4.13.
Work on DINSVRYYPSGDAFASGSDDATHR yielded a protein stability index of 4.3.
Variant DINSVRYYPSGDAFASGSDDATKR has a protein stability index of 4.41.
Variant DINSVRYYPSGDAFASGSDDATGR has a protein stability index of 4.39.
DINSVRYYPSGDAFASGSDDATIR showed a protein stability index of 4.
DINSVRYYPSGDAFASGSDDATSR gave a protein stability index of 4.05.
Work on DINSVRYYPSGDAFASGSDDATAR yielded a protein stability index of 4.53.
Work on DINSVRYYPSGDAFASGSDDATLR yielded a protein stability index of 3.95.
Work on DINSVRYYPSGDAFASGSDDATVR yielded a protein stability index of 3.87.
In the case of DINSVRYYPSGDAFASGSDDATFR, the protein stability index is reported as 3.95.
DINSVRYYPSGDAFASGSDDATER gave a protein stability index of 4.74.
For DINSVRYYPSGDAFASGSDDATPR, the protein stability index was 4.14.
For DINSVRYYPSGDAFASGSDDATWR, the protein stability index was 3.14.
DINSVRYYPSGDAFASGSDGATCR gave a protein stability index of 3.61.
In the case of DINSVRYYPSGDAFASGSDHATCR, the protein stability index is reported as 3.04.
For DINSVRYYPSGDAFASGSDIATCR, the protein stability index was 3.14.
DINSVRYYPSGDAFASGSDPATCR gave a protein stability index of 3.4.
Variant DINSVRYYPSGDAFASGSDAATCR has a protein stability index of 3.44.
With DINSVRYYPSGDAFASGSDKATCR the protein stability index was 3.06.
DINSVRYYPSGDAFASGSDRATCR showed a protein stability index of 3.2.
DINSVRYYPSGDAFASGSDEATCR gave a protein stability index of 3.94.
For DINSVRYYPSGDAFASGSDSATCR, the protein stability index was 3.47.
DINSVRYYPSGDAFASGSDNATCR gave a protein stability index of 3.42.
Work on DINSVRYYPSGDAFASGSDWATCR yielded a protein stability index of 2.16.
In the case of DINSVRYYPSGDAFASGSDMATCR, the protein stability index is reported as 3.13.
DINSVRYYPSGDAFASGSDQATCR showed a protein stability index of 3.69.
Work on DINSVRYYPSGDAFASGSDVATCR yielded a protein stability index of 3.27.
DINSVRYYPSGDAFASGSDLATCR gave a protein stability index of 3.15.
Variant DINSVRYYPSGDAFASGSDTATCR has a protein stability index of 3.58.
For DINSVRYYPSGDAFASGSDCATCR, the protein stability index was 3.53.
DINSVRYYPSGDAFASGSDFATCR showed a protein stability index of 2.5.
DINSVRYYPSGDAFASGSDYATCR gave a protein stability index of 2.6.
Variant DINSVRYYPSGDAFASGSDDAMCR has a protein stability index of 3.47.
DINSVRYYPSGDAFASGSDDAKCR gave a protein stability index of 4.07.
With DINSVRYYPSGDAFASGSDDAGCR the protein stability index was 4.05.
DINSVRYYPSGDAFASGSDDADCR gave a protein stability index of 3.76.
Work on DINSVRYYPSGDAFASGSDDAPCR yielded a protein stability index of 3.56.
In the case of DINSVRYYPSGDAFASGSDDAQCR, the protein stability index is reported as 4.15.
Work on DINSVRYYPSGDAFASGSDDAICR yielded a protein stability index of 3.84.
Variant DINSVRYYPSGDAFASGSDDAVCR has a protein stability index of 3.8.
In the case of DINSVRYYPSGDAFASGSDDAECR, the protein stability index is reported as 4.86.
For DINSVRYYPSGDAFASGSDDAYCR, the protein stability index was 2.94.
Variant DINSVRYYPSGDAFASGSDDARCR has a protein stability index of 3.57.
Variant DINSVRYYPSGDAFASGSDDAFCR has a protein stability index of 3.42.
For DINSVRYYPSGDAFASGSDDASCR, the protein stability index was 3.91.
Work on DINSVRYYPSGDAFASGSDDAACR yielded a protein stability index of 3.92.
Variant DINSVRYYPSGDAFASGSDDALCR has a protein stability index of 3.72.
For DINSVRYYPSGDAFASGSDDANCR, the protein stability index was 4.01.
Variant DINSVRYYPSGDAFASGSDDAHCR has a protein stability index of 4.06.
DINSVRYYPSGDAFASGSDDACCR gave a protein stability index of 3.65.
For DINSVRYYPSGDAFASGSDDAWCR, the protein stability index was 3.
With DINSVRYYPSGDAFASGSRDATCR the protein stability index was 3.06.
DINSVRYYPSGDAFASGSKDATCR showed a protein stability index of 3.7.
DINSVRYYPSGDAFASGSEDATCR gave a protein stability index of 4.15.
Variant DINSVRYYPSGDAFASGSADATCR has a protein stability index of 2.88.
Variant DINSVRYYPSGDAFASGSPDATCR has a protein stability index of 3.4.
DINSVRYYPSGDAFASGSIDATCR showed a protein stability index of 3.03.
For DINSVRYYPSGDAFASGSWDATCR, the protein stability index was 3.03.
In the case of DINSVRYYPSGDAFASGSLDATCR, the protein stability index is reported as 3.14.
Variant DINSVRYYPSGDAFASGSVDATCR has a protein stability index of 2.69.
Work on DINSVRYYPSGDAFASGSHDATCR yielded a protein stability index of 3.12.
In the case of DINSVRYYPSGDAFASGSFDATCR, the protein stability index is reported as 2.39.
In the case of DINSVRYYPSGDAFASGSTDATCR, the protein stability index is reported as 3.25.
DINSVRYYPSGDAFASGSQDATCR gave a protein stability index of 3.75.
For DINSVRYYPSGDAFASGSSDATCR, the protein stability index was 3.4.
DINSVRYYPSGDAFASGSMDATCR gave a protein stability index of 2.95.
For DINSVRYYPSGDAFASGSGDATCR, the protein stability index was 3.79.
For DINSVRYYPSGDAFASGSCDATCR, the protein stability index was 2.85.
For DINSVRYYPSGDAFASGSYDATCR, the protein stability index was 2.62.
DINSVRYYPSGDAFASGSNDATCR showed a protein stability index of 3.2.
With DINSVRYYPSGDAFASGSDDATCP the protein stability index was 4.3.
For DINSVRYYPSGDAFASGSDDATCY, the protein stability index was 3.99.
In the case of DINSVRYYPSGDAFASGSDDATCW, the protein stability index is reported as 3.53.
Variant DINSVRYYPSGDAFASGSDDATCV has a protein stability index of 3.92.
In the case of DINSVRYYPSGDAFASGSDDATCI, the protein stability index is reported as 3.77.
DINSVRYYPSGDAFASGSDDATCK showed a protein stability index of 4.19.
For DINSVRYYPSGDAFASGSDDATCT, the protein stability index was 4.41.
Work on DINSVRYYPSGDAFASGSDDATCC yielded a protein stability index of 4.06.
For DINSVRYYPSGDAFASGSDDATCF, the protein stability index was 3.51.
Variant DINSVRYYPSGDAFASGSDDATCD has a protein stability index of 4.32.
For DINSVRYYPSGDAFASGSDDATCM, the protein stability index was 4.03.
Variant DINSVRYYPSGDAFASGSDDATCE has a protein stability index of 4.71.
Work on DINSVRYYPSGDAFASGSDDATCS yielded a protein stability index of 4.12.
For DINSVRYYPSGDAFASGSDDATCL, the protein stability index was 3.63.
DINSVRYYPSGDAFASGSDDATCH gave a protein stability index of 4.29.
DINSVRYYPSGDAFASGSDDATCG showed a protein stability index of 4.59.
DINSVRYYPSGDAFASGSDDATCN showed a protein stability index of 3.59.
DINSVRYYPSGDAFASGSDDATCA gave a protein stability index of 4.03.
With DINSVRYYPSGDAFASGSDDATCQ the protein stability index was 4.68.

— the supplement of paper PMC10567573
